Assay results from IntAct's records for PubMed 25910212.

B1: Methylmalonyl-CoA epimerase, mitochondrial (Homo sapiens), Q96PE7 (parent)
chain: MARVLKAAAANAVGLFSRLQAPIPTVRASSTSQPLDQVTGSVWNLGRLNHVAIAVPDLEKAAAFYKNILGAQVSEAVPLPEHGVSVVFVNLGNTKMELLHPLGRDSPIAGFLQKNKAGGMHHICIEVDNINAAVMDLKKKKIRSLSEEVKIGAHGKPVIFLHPKDCGGVLVELEQA
B2: Sulfite oxidase, mitochondrial (Homo sapiens), P51687 (parent)
chain: MLLLHRAVVLRLQQACRLKSIPSRICIQACSTNDSFQPQRPSLTFSGDNSSTQGWRVMGTLLGLGAVLAYQDHRCRAAQESTHIYTKEEVSSHTSPETGIWVTLGSEVFDVTEFVDLHPGGPSKLMLAAGGPLEPFWALYAVHNQSHVRELLAQYKIGELNPEDKVAPTVETSDPYADDPVRHPALKVNSQRPFNAEPPPELLTENYITPNPIFFTRNHLPVPNLDPDTYRLHVVGAPGGQSLSLSLDDLHNFPRYEITVTLQCAGNRRSEMTQVKEVKGLEWRTGAISTARWAGARLCDVLAQAGHQLCETEAHVCFEGLDSDPTGTAYGASIPLARAMDPEAEVLLAYEMNGQPLPRDHGFPVRVVVPGVVGARHVKWLGRVSVQPEESYSHWQRRDYKGFSPSVDWETVDFDSAPSIQELPVQSAITEPRDGETVESGEVTIKGYAWSGGGRAVIRVDVSLDGGLTWQVAKLDGEEQRPRKAWAWRLWQLKAPVPAGQKELNIVCKAVDDGYNVQPDTVAPIWNLRGVLSNAWHRVHVYVSP
B3: DNA mismatch repair protein Mlh1 (Homo sapiens), P40692 (parent)
chain: MSFVAGVIRRLDETVVNRIAAGEVIQRPANAIKEMIENCLDAKSTSIQVIVKEGGLKLIQIQDNGTGIRKEDLDIVCERFTTSKLQSFEDLASISTYGFRGEALASISHVAHVTITTKTADGKCAYRASYSDGKLKAPPKPCAGNQGTQITVEDLFYNIATRRKALKNPSEEYGKILEVVGRYSVHNAGISFSVKKQGETVADVRTLPNASTVDNIRSIFGNAVSRELIEIGCEDKTLAFKMNGYISNANYSVKKCIFLLFINHRLVESTSLRKAIETVYAAYLPKNTHPFLYLSLEISPQNVDVNVHPTKHEVHFLHEESILERVQQHIESKLLGSNSSRMYFTQTLLPGLAGPSGEMVKSTTSLTSSSTSGSSDKVYAHQMVRTDSREQKLDAFLQPLSKPLSSQPQAIVTEDKTDISSGRARQQDEEMLELPAPAEVAAKNQSLEGDTTKGTSEMSEKRGPTSSNPRKRHREDSDVEMVEDDSRKEMTAACTPRRRIINLTSVLSLQEEINEQGHEVLREMLHNHSFVGCVNPQWALAQHQTKLYLLNTTKLSEELFYQILIYDFANFGVLRLSEPAPLFDLAMLALDSPESGWTEEDGPKEGLAEYIVEFLKKKAEMLADYFSLEIDEEGNLIGLPLLIDNYVPPLEGLPIFILRLATEVNWDEEKECFESLSKECAMFYSIRKQYISEESTLSGQQSEVPGSIPNSWKWTVEHIVYKALRSHILPPKHFTEDGNILQLANLPDLYKVFERC
partner: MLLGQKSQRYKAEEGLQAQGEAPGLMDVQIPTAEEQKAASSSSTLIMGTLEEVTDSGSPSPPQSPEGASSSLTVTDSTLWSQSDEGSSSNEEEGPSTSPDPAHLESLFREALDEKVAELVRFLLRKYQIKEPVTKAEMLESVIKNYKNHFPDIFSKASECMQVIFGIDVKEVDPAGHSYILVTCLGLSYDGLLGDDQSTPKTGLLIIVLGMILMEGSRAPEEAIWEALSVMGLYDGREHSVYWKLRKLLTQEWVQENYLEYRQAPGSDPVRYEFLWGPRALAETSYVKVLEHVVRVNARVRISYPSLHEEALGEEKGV
B4: 5-aminolevulinate synthase, erythroid-specific, mitochondrial (Homo sapiens), P22557-2 (parent)
chain: MVTAAMLLQCCPVLARGPTSLLGKVVKTHQFLFGIGRCPILATQGPNCSQIHLKATKAGGDSPSWAKGHCPFMLSELQDGKSKIVQKAAPEVQEDVKAFKTGNYVFSYDQFFRDKIMEKKQDHTYRVFKTVNRWADAYPFAQHFSEASVASKDVSVWCSNDYLGMSRHPQVLQATQETLQRHGAGAGGTRNISGTSKFHVELEQELAELHQKDSALLFSSCFVANDSTLFTLAKILPGCEIYSDAGNHASMIQGIRNSGAAKFVFRHNDPDHLKKLLEKSNPKIPKIVAFETVHSMDGAICPLEELCDVSHQYGALTFVDEVHAVGLYGSRGAGIGERDGIMHKIDIISGTLGKAFGCVGGYIASTRDLVDMVRSYAAGFIFTTSLPPMVLSGALESVRLLKGEEGQALRRAHQRNVKHMRQLLMDRGLPVIPCPSHIIPIRVGNAALNSKLCDLLLSKHGIYVQAINYPTVPRGEELLRLAPSPHHSPQMMEDFVEKLLLAWTAVGLPLQDVSVAACNFCRRPVHFELMSEWERSYFGNMGPQYVTTYA
partner: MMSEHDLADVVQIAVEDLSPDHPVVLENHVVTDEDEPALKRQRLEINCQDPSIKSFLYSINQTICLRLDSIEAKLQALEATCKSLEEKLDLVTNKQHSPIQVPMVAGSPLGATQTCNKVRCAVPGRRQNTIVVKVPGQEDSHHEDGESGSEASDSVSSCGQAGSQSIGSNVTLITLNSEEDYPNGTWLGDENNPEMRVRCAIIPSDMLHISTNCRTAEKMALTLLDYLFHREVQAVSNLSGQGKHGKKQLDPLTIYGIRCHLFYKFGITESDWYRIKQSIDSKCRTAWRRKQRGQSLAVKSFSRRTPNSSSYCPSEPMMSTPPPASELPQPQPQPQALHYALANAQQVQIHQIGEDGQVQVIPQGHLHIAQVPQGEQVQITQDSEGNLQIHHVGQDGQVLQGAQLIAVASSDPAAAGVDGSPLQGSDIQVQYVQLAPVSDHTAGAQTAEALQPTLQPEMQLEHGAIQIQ
B5: EF-hand domain-containing protein 1 (Homo sapiens), Q5JVL4 (parent)
chain: MVSNPVHGLPFLPGTSFKDSTKTAFHRSQTLSYRNGYAIVRRPTVGIGGDRLQFNQLSQAELDELASKAPVLTYGQPKQAPPADFIPAHVAFDKKVLKFDAYFQEDVPMSTEEQYRIRQVNIYYYLEDDSMSVIEPVVENSGILQGKLIKRQRLAKNDRGDHYHWKDLNRGINITIYGKTFRVVDCDQFTQVFLESQGIELNPPEKMALDPYTELRKQPLRKYVTPSDFDQLKQFLTFDKQVLRFYAIWDDTDSMYGECRTYIIHYYLMDDTVEIREVHERNDGRDPFPLLMNRQRVPKVLVENAKNFPQCVLEISDQEVLEWYTAKDFIVGKSLTILGRTFFIYDCDPFTRRYYKEKFGITDLPRIDVSKREPPPVKQELPPYNGFGLVEDSAQNCFALIPKAPKKDVIKMLVNDNKVLRYLAVLESPIPEDKDRRFVFSYFLATDMISIFEPPVRNSGIIGGKYLGRTKVVKPYSTVDNPVYYGPSDFFIGAVIEVFGHRFIILDTDEYVLKYMESNAAQYSPEALASIQNHVRKREAPAPEAESKQTEKDPGVQELEALIDTIQKQLKDHSCKDNIREAFQIYDKEASGYVDRDMFFKICESLNVPVDDSLVKELIRMCSHGEGKINYYNFVRAFSN
partner: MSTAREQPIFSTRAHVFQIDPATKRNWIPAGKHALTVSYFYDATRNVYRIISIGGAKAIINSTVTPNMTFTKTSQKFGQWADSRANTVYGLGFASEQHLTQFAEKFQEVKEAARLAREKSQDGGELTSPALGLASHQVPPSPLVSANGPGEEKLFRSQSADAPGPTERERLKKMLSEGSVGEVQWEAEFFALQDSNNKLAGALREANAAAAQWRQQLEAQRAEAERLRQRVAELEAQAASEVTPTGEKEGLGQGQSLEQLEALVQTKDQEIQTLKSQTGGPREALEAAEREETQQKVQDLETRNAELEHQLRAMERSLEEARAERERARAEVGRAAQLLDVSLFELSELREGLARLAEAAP

Variants of: B1
Details: with AGTRAP

Row | effect of a mutation on the interaction | Variant
1 | with no effect | A76V
2 | with no effect | R143C
3 | with no effect | R143H

Variants of: B1
Details: with CMTM5, Q96DZ9-2
CMTM5, Q96DZ9-2, sequence (Q96DZ9 other isoform, or with tags, fused parts or gaps): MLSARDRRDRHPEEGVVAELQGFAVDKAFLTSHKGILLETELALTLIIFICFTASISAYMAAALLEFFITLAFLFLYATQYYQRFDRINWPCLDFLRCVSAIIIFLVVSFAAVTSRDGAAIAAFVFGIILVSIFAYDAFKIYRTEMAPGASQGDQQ

Row | effect of a mutation on the interaction | Variant
4 | with no effect | A76V
5 | with no effect | R143C
6 | with no effect | R143H

Variants of: B2
Details: with nup62_human NUP62, P37198
nup62_human NUP62, P37198, sequence (P37198 whole entry): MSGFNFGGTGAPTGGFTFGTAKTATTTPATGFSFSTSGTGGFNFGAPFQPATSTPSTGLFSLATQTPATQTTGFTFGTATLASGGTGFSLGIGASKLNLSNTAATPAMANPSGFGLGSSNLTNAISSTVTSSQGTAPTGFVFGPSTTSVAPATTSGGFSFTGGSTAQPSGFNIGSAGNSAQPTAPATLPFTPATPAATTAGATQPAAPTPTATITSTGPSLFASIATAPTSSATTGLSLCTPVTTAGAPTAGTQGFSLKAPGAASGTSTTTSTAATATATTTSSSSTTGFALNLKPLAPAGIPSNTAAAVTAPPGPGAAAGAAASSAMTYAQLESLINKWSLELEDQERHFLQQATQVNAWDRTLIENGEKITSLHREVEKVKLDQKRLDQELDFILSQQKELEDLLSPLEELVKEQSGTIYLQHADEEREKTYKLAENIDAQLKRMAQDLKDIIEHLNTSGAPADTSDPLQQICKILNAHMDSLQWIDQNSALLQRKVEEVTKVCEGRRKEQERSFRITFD

Row | effect of a mutation on the interaction | Variant
7 | with no effect | Q396R
8 | disrupting interaction strength | W450R

Variants of: B3
Details: with maga8_human MAGEA8, P43361

Row | effect of a mutation on the interaction | Variant
9 | disrupting interaction strength | S44F
10 | with no effect | R472I
11 | with no effect | G244D

Variants of: B4
Details: with BANP

Row | Variant | effect of a mutation on the interaction
12 | R133H | with no effect
13 | I252T | disrupting interaction strength

Second part, the variant after the results:

Row | effect of a mutation on the interaction | Variant
14 | disrupting interaction strength | I439N
15 | disrupting interaction strength | R411Q

Variants of: B5
Details: with home3_human HOMER3, Q9NSC5

Row | effect of a mutation on the interaction | Variant
16 | disrupting interaction strength | R221H
17 | with no effect | R159W
18 | with no effect | M448T
19 | disrupting interaction strength | P77T
20 | disrupting interaction strength | A394S
